From US20230051847A1 (Johns Hopkins, published 2023) come the findings set out here.

Sequences and labels used below:
B1: H/K/N RAS Q61H_A1_cl5 (scFv)
scFv: DIQMTQSPSSLSASVGDRVTITCRASQDVNTAVAWYQQKPGKAPKLLIYSASFLYSGVPSRFSGSRSGTDFTLTISSLQPEDFATYYCQQSSYSPWTFGQGTKVEIKRTGGGSGGGGSGGGASEVQLVESGGGLVQPGGSLRLSCAASGFNISPWDMHWVRQAPGKGLEWVAQLYPSSGYTNYADSVKGRFTISADTSKNTAYLQMNSLRAEDTAVYYCSRSVYWSLDYWGQGTLVTVSS
B2: H/K/N RAS Q61H_A1_cl8 (scFv)
scFv: DIQMTQSPSSLSASVGDRVTITCRASQDVNTAVAWYQQKPGKAPKLLIYSASFLYSGVPSRFSGSRSGTDFTLTISSLQPEDFATYYCQQSFSTPITFGQGTKVEIKRTGGGSGGGGSGGGASEVQLVESGGGLVQPGGSLRLSCAASGFNISEYLMHWVRQAPGKGLEWVALLPPGLSYTNYADSVKGRFTISADTSKNTAYLQMNSLRAEDTAVYYCSRYGYYAFDYWGQGTLVTVSS
B3: H/R/N RAS Q61R_A1_cl5 (scFv)
scFv: DIQMTQSPSSLSASVGDRVTITCRASQDVNTAVAWYQQKPGKAPKLLIYSASFLYSGVPSRFSGSRSGTDFTLTISSLQPEDFATYYCQQYYLYQPITFGQGTKVEIKRTGGGSGGGGSGGGASEVQLVESGGGLVQPGGSLRLSCAASGFNIGMYTMHWVRQAPGKGLEWVALVYPDSGYTNYADSVKGRFTISADTSKNTAYLQMNSLRAEDTAVYYCSRYTWQSMDYWGQGTLVTVSS
B4: H/R/N RAS Q61R_A1_cl2 (scFv)
scFv: DIQMTQSPSSLSASVGDRVTITCRASQDVNTAVAWYQQKPGKAPKLLIYSASFLYSGVPSRFSGSRSGTDFTLTISSLQPEDFATYYCQQYWYYYPITFGQGTKVEIKRTGGGSGGGGSGGGASEVQLVESGGGLVQPGGSLRLSCAASGFNIYSYDMHWVRQAPGKGLEWVAISPGGSYTYYADSVKGRFTISADTSKNTAYLQMNSLRAEDTAVYYCSRSAFTGYFDVWGQGTLVTVSS
B5: H/R/N RAS Q61R_A1_cl1 (scFv)
scFv: DIQMTQSPSSLSASVGDRVTITCRASQDVNTAVAWYQQKPGKAPKLLIYSASFLYSGVPSRFSGSRSGTDFTLTISSLQPEDFATYYCQQSYTSPLTFGQGTKVEIKRTGGGSGGGGSGGGASEVQLVESGGGLVQPGGSLRLSCAASGFNIYYGVMHWVRQAPGKGLEWVAMIYPDSSWTYYADSVKGRFTISADTSKNTAYLQMNSLRAEDTAVYYCSRDQDFHYMNYYLSYALDYWGQGTLVTVSS
notes: also called H/K/N RAS Q61R(55-64)-A1 cl.1
B6: H/R/N RAS Q61R_A1_cl3 (scFv)
scFv: DIQMTQSPSSLSASVGDRVTITCRASQDVNTAVAWYQQKPGKAPKLLIYSASFLYSGVPSRFSGSRSGTDFTLTISSLQPEDFATYYCQQSYYAPITFGQGTKVEIKRTGGGSGGGGSGGGASEVQLVESGGGLVQPGGSLRLSCAASGFNVQWSHMHWVRQAPGKGLEWVARLSPPSGYTNYADSVKGRFTISADTSKNTAYLQMNSLRAEDTAVYYCSRLILSKGGYGWAMDYWGQGTLVTVSS
B7: H/R/N RAS Q61R_A1_cl7 (scFv)
scFv: DIQMTQSPSSLSASVGDRVTITCRASQDVNTAVAWYQQKPGKAPKLLIYSASFLYSGVPSRFSGSRSGTDFTLTISSLQPEDFATYYCQQYASDPITFGQGTKVEIKRTGGGSGGGGSGGGASEVQLVESGGGLVQPGGSLRLSCAASGFNLDYGWMHWVRQAPGKGLEWVAWVVPGSDYTDYADSVKGRFTISADTSKNTAYLQMNSLRAEDTAVYYCSRFHYTAFDVWGQGTLVTVSS
B8: H/R/N RAS Q61R_A1_cl18 (scFv)
scFv: DIQMTQSPSSLSASVGDRVTITCRASQDVNTAVAWYQQKPGKAPKLLIYSASFLYSGVPSRFSGSRSGTDFTLTISSLQPEDFATYYCQQYIYDPVTFGQGTKVEIKRTGGGSGGGGSGGGASEVQLVESGGGLVQPGGSLRLSCAASGFNVDWAWMHWVRQAPGKGLEWVAWVVGGSDYTYYADSVKGRFTISADTSKNTAYLQMNSLRAEDTAVYYCSRSYYYAFDYWGQGTLVTVSS
B9: H/R/N RAS Q61R_A1_cl19 (scFv)
scFv: DIQMTQSPSSLSASVGDRVTITCRASQDVNTAVAWYQQKPGKAPKLLIYSASFLYSGVPSRFSGSRSGTDFTLTISSLQPEDFATYYCQQLMYDPITFGQGTKVEIKRTGGGSGGGGSGGGASEVQLVESGGGLVQPGGSLRLSCAASGFNFGTYWMHWVRQAPGKGLEWVAWFLPDYDYTLYADSVKGRFTISADTSKNTAYLQMNSLRAEDTAVYYCSRHGEYAFDYWGQGTLVTVSS
B10: H/R/N RAS Q61R_A1_cl13 (scFv)
scFv: DIQMTQSPSSLSASVGDRVTITCRASQDVNTAVAWYQQKPGKAPKLLIYSASFLYSGVPSRFSGSRSGTDFTLTISSLQPEDFATYYCQQYSYDPITFGQGTKVEIKRTGGGSGGGGSGGGASEVQLVESGGGLVQPGGSLRLSCAASGFNFSYSAMHWVRQAPGKGLEWVADVVPDGDWTYYADSVKGRFTISADTSKNTAYLQMNSLRAEDTAVYYCSRGWYALDYWGQGTLVTVSS
B11: H/K/N RAS Q61L_A1_cl6 (scFv)
scFv: DIQMTQSPSSLSASVGDRVTITCRASQDVNTAVAWYQQKPGKAPKLLIYSASFLYSGVPSRFSGSRSGTDFTLTISSLQPEDFATYYCQQSYYSPWTFGQGTKVEIKRTGGGSGGGGSGGGASEVQLVESGGGLVQPGGSLRLSCAASGFNISYSNIHWVRQAPGKGLEWVAMIYGTRGGTYYADSVKGRFTISADTSKNTAYLQMNSLRAEDTAVYYCSRYYSYAMDYWGQGTLVTVSS
B12: H/K/N RAS Q61L_A1_cl4 (scFv)
scFv: DIQMTQSPSSLSASVGDRVTITCRASQDVNTAVAWYQQKPGKAPKLLIYSASFLYSGVPSRFSGSRSGTDFTLTISSLQPEDFATYYCQQSWYSPSTFGQGTKVEIKRTGGGSGGGGSGGGASEVQLVESGGGLVQPGGSLRLSCAASGFNISASGMHWVRQAPGKGLEWVAWIWGGSSYTYYADSVKGRFTISADTSKNTAYLQMNSLRAEDTAVYYCSRGQYLSYMDYWGQGTLVTVSS
B13: H/K/N RAS Q61L_A1_cl3 (scFv)
scFv: DIQMTQSPSSLSASVGDRVTITCRASQDVNTAVAWYQQKPGKAPKLLIYSASFLYSGVPSRFSGSRSGTDFTLTISSLQPEDFATYYCQQTSSYPITFGQGTKVEIKRTGGGSGGGGSGGGASEVQLVESGGGLVQPGGSLRLSCAASGFNIYWYGMHWVRQAPGKGLEWVAQVYPWSGFTYYADSVKGRFTISADTSKNTAYLQMNSLRAEDTAVYYCSRDYYSYSLDYWGQGTLVTVSS
B14: H/K/N RAS Q61L_A1_cl10 (scFv)
scFv: DIQMTQSPSSLSASVGDRVTITCRASQDVNTAVAWYQQKPGKAPKLLIYSASFLYSGVPSRFSGSRSGTDFTLTISSLQPEDFATYYCQQSYYPYYPWTFGQGTKVEIKRTGGGSGGGGSGGGASEVQLVESGGGLVQPGGSLRLSCAASGFNVSHSAMHWVRQAPGKGLEWVATVHPDWGNTYYADSVKGRFTISADTSKNTAYLQMNSLRAEDTAVYYCSRWQQYYYSFDYWGQGTLVTVSS
B15: H/K/N RAS Q61L_A1_cl9 (scFv)
scFv: DIQMTQSPSSLSASVGDRVTITCRASQDVNTAVAWYQQKPGKAPKLLIYSASFLYSGVPSRFSGSRSGTDFTLTISSLQPEDFATYYCQQTYYYPFTFGQGTKVEIKRTGGGSGGGGSGGGASEVQLVESGGGLVQPGGSLRLSCAASGFNLYAWGMHWVRQAPGKGLEWVALVYGGWGSTSYADSVKGRFTISADTSKNTAYLQMNSLRAEDTAVYYCSRAGSSKMSAGAFDYWGQGTLVTVSS
B16: H/K/N RAS Q61L_A1_cl1 (scFv)
scFv: DIQMTQSPSSLSASVGDRVTITCRASQDVNTAVAWYQQKPGKAPKLLIYSASFLYSGVPSRFSGSRSGTDFTLTISSLQPEDFATYYCQQASRQPYTFGQGTKVEIKRTGGGSGGGGSGGGASEVQLVESGGGLVQPGGSLRLSCAASGFNFSESGMHWVRQAPGKGLEWVAHFSGDSGYTYYADSVKGRFTISADTSKNTAYLQMNSLRAEDTAVYYCSRYMYYSGYFDYWGQGTLVTVSS
B17: H/K/N RAS Q61L_A1_cl8 (scFv)
scFv: DIQMTQSPSSLSASVGDRVTITCRASQDVNTAVAWYQQKPGKAPKLLIYSASFLYSGVPSRFSGSRSGTDFTLTISSLQPEDFATYYCQQSYSSGPVTFGQGTKVEIKRTGGGSGGGGSGGGASEVQLVESGGGLVQPGGSLRLSCAASGFNFSYGGIHWVRQAPGKGLEWVAMIYPLTGYTNYADSVKGRFTISADTSKNTAYLQMNSLRAEDTAVYYCSRDYYYSVDVWGQGTLVTVSS
B18: H/K/N RAS Q61L_A1_cl7 (scFv)
scFv: DIQMTQSPSSLSASVGDRVTITCRASQDVNTAVAWYQQKPGKAPKLLIYSASFLYSGVPSRFSGSRSGTDFTLTISSLQPEDFATYYCQQAYYPPWTFGQGTKVEIKRTGGGSGGGGSGGGASEVQLVESGGGLVQPGGSLRLSCAASGFNVSRWAMHWVRQAPGKGLEWVARVYPSGYLTYYADSVKGRFTISADTSKNTAYLQMNSLRAEDTAVYYCSRNMQSYMDYWGQGTLVTVSS
B19: H/K/N RAS Q61L_A1_cl11 (scFv)
scFv: DIQMTQSPSSLSASVGDRVTITCRASQDVNTAVAWYQQKPGKAPKLLIYSASFLYSGVPSRFSGSRSGTDFTLTISSLQPEDFATYYCQQYDRPITFGQGTKVEIKRTGGGSGGGGSGGGASEVQLVESGGGLVQPGGSLRLSCAASGFNIYYEAMHWVRQAPGKGLEWVAQIYPWNDYTYYADSVKGRFTISADTSKNTAYLQMNSLRAEDTAVYYCSRNYYAATMDYWGQGTLVTVSS

The target of one experiment is T1, RAS Q61WT[55-64] pHLA-A1 (human).
T1 construct: also called Q61WT pHLA-A1; H/K/N RAS WT(55-64) peptide on HLA-A1
Nature of the experiment: flow cytometry: scFv phage supernatant on peptide-pulsed SigM5 cells (HLA-A1+), median fluorescence intensity. (In general: In flow cytometry, cells or beads pass a laser one at a time.)
Turning to B1, the binding result was “no binding”.

For B2, the binding result is “no binding”.

Another experiment deals with T1, RAS Q61WT[55-64] pHLA-A1. The experiment is described as above. This is another data set of the same source.
As to B3, the binding result is recorded as “no binding”.

As for B4, the binding result is recorded as “no binding”.

Take B5: the binding result is given as “no binding”. Same read-out and setting: the entry for B6 is “no binding”; for B7 it is “no binding”. The same measure, in the same setting: in the case of B8 it was “no binding”; in that of B9, “no binding”. The same measure, in the same setting: in the case of B10 it was “no binding”.

The target of a further experiment is T1, RAS Q61WT[55-64] pHLA-A1. The experiment is described as above. This is another data set of the same source.
Turning to B11, the binding result is recorded as “no binding”. On the same count and under the same terms, in the case of B12 it was “no binding”. The same measure, in the same setting: the entry for B13 is “no binding”. The same measure, in the same setting: the entry for B14 is “no binding”; for B15 it is “no binding”.

Regarding B16, the binding result was “no binding”. Still for that read-out and setting: the entry for B17 is “no binding”; for B18 it is “no binding”. Same read-out and setting: the entry for B19 is “no binding”.
